Measured values published in publication PMC4164936, “The translation elongation factor eEF1A1 couples transcription to translation during heat shock response”.

Assays:
[1] = molecular target: T1, eEF1A1 (Homo sapiens (HeLa S-100)) (UniProt P68104); assay: EMSA; conditions: RNA EMSA: purified eEF1A1 with 20 kcpm RNA (~0.1 pmol/ul), 50 uM GTP, 30 min, room temperature; protein stock in 50 mM Tris-HCl pH 7.5, 100 mM KCl, 0.5 mM …
T1 sequence: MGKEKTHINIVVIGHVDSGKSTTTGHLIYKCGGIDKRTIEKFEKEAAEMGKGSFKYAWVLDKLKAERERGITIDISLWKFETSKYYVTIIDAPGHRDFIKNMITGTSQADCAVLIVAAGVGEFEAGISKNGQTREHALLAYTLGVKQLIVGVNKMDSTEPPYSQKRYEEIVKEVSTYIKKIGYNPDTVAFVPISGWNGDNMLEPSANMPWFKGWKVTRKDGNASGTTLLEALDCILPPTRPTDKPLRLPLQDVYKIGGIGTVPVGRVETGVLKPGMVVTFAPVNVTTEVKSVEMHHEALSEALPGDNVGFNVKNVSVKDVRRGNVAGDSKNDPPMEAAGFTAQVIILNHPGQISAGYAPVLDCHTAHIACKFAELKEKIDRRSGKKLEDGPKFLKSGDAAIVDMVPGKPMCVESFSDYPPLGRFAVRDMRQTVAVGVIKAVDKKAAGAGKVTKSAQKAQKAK

[2] = molecular target: eEF1A1 (Homo sapiens (HeLa S-100), UniProt P68104 1-462); assay: EMSA; relatively weak; reviewer notes no saturation, >300 nM; RNA EMSA: purified eEF1A1 with 20 kcpm RNA (~0.1 pmol/ul), 50 uM GTP, 30 min, room temperature; protein stock in 50 mM Tris-HCl pH 7.5, 100 mM KCl, 0.5 mM EDTA, 2 mM DTT, 10% glycerol; binding buffer per cited protocols (Yan 2008, Shamovsky 2006); conditions: protein: native; tags: none; (radiolabeled); blunt

With “GGGGGGCCUUUCCAAGAUUGCUGUUUUUGUUUUGGAGCUUCAAGACUUUGCAUUUCCUAGUAUUUCUGUUUGUCAGUUCUCAAUUUCCUGUGUUUGCAAUGUUGAAAUUUUUUGGUGAAGUACUGAACUUGCUUUUUUUCCGGUUUCUACAUGCAGAGAUGAAUUUAUACUGCCAUCUUACGACUAUUUCUUCUUUUUAAUACACUUAACUCAGGCCAUUUUUUAAGUUGGUUACUUCAAAGUAAAUAAACUUUAAAAUUCAA [HSP70 3'UTR]” the Kd [1] was 100 nM and the binding [1] was “binds”.

HSP70 3'UTR gave a Kd [1] of 100 nM.

B1: HSPA1A -141/-91 promoter (dsDNA)
DNA 1: GGAAGGCTGGGGGGCAGGACGGGAGGCGAAAACCCTGGAATATTCCCGACC
DNA 2: GGTCGGGAATATTCCAGGGTTTTCGCCTCCCGTCCTGCCCCCCAGCCTTCC
B1: binds [2].
